Series [1] has as its target T1, human lens ALDH1A1 (Homo sapiens, UniProt P00352).
T1 sequence (P00352 1-501): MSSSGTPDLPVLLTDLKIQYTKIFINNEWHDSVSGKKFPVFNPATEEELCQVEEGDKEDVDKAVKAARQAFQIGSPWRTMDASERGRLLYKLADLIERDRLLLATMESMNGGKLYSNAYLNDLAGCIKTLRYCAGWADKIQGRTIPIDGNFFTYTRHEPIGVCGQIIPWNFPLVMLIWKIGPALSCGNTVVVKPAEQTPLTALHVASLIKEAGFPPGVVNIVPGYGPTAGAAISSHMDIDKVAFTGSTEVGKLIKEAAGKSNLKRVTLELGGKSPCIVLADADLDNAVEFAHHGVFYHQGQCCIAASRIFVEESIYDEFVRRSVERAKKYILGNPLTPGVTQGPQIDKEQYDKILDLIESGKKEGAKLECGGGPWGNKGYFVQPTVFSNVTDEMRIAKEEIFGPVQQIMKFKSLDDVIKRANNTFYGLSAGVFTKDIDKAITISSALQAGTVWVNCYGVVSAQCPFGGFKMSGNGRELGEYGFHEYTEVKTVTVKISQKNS
Format: biochemical.

Series [2] deals with T1, human lens ALDH1A1. Format: biochemical. This is another data set of the same source.
Substrate in series [3]: CCCCCC(O)C=CC=O
Description: purified protein. The following applies: NAD+ probably both the substrates fit the active site well.

Substrate in series [4]: CCC=O
In words: purified protein. Format: biochemical, Homo sapiens. The following applies: NAD+.

Substrate in series [5]: NC(=O)c1ccc[n+]([C@@H]2O[C@H](COP(=O)([O-])OP(=O)(O)OC[C@H]3O[C@@H](n4cnc5c(N)ncnc54)[C@H](O)[C@@H]3O)[C@@H](O)[C@H]2O)c1
Description: purified protein. The series is classed as biochemical, Homo sapiens. To be noted: may interfere with NO binding to catalytic site; varied: cofactor.

Substrate in series [6]: O=CCC=O
In words: purified protein. Format: biochemical, Homo sapiens. The following applies: NAD+ probably both the substrates fit the active site well.

Substrate in series [7]: O=Cc1ccccc1
Description: purified protein. To be noted: NAD+. The series is classed as biochemical, Homo sapiens.

As usually defined, the EC50 is the midpoint of the concentration-response curve. Higher therefore signals lower potency in that assay. A word on the IC50: it is the concentration needed to halve the response being measured. High values mean a need for much substance, low ones inhibition by little substance. As a reminder, the Km is the substrate concentration at which the rate is half of its maximum. A word on the Vmax: it is the top rate of the reaction or transport when substrate is in excess.

At human lens ALDH1A1 [1], `CC/C(=C(/CC)c1ccc(O)cc1)c1ccc(O)cc1` [diethylstilbestrol] registered an EC50 of 11.3 µM.

At human lens ALDH1A1 [2], `CC(C)=CCCC(C)=CC=O` [citral, 3,7-dimethyl-2,6-octadienal] had an IC50 of 55 µM.

B1: human lens ALDH1A1 (Homo sapiens) (protein)
chain: T1 sequence (P00352 1-501)
For B1, the Km came out at 4.8 ± 0.12 µM in “purified protein [3]”; 121.4 ± 6.7 µM in the series “purified protein [4]”; 59.4 ± 2.4 µM in the series “purified protein [5]”; 3.5 ± 0.6 µM in “purified protein [6]”; 143.2 ± 6.4 µM in the series “purified protein [7]”. Further, the Vmax in the series “purified protein [3]” was determined as 0.135 ± 0.0152 µmol/min/mg; in “purified protein [4]”, 0.445 µmol/min/mg; in “purified protein [5]” it was 0.15 µmol/min/mg; in “purified protein [6]”, 0.382 µmol/min/mg; in the series “purified protein [7]”, 0.75 µmol/min/mg.

These data come from PMC5645793 (Journal of toxicology and environmental health. Part A, 2009).
